From patent US20210047426A1 come the findings set out here.

In experiment [1] the target is Cynomolgus CD3ε/δ (soluble recombinant cynomolgus monkey CD3) (cynomolgus monkey) (UniProt Q95LI5). Kind of experiment: SPR (BIAcore 3000), antigen immobilized on the chip, DART-A injected, 1:1 Langmuir fit, mean of 3 experiments. A general note: In SPR one partner is held on a chip, and binding of the other changes the refractive index at the surface.
Experiment [2] addresses Human CD3ε/δ (soluble recombinant human CD3) (human) (UniProt P07766). Described as above.
Experiment [3] has the same target. Briefly: BIACORE surface plasmon resonance, recombinant human CD3 directly immobilized, 1:1 binding fit.
In experiment [4] the target is Cynomolgus CD3ε/δ (soluble recombinant cynomolgus monkey CD3) (cynomolgus monkey) (UniProt Q95LI5). Kind of experiment: BIACORE surface plasmon resonance, recombinant cynomolgus monkey CD3 directly immobilized, 1:1 binding fit.

Sequence of Cynomolgus CD3ε/δ (soluble recombinant cynomolgus monkey CD3) (cynomolgus monkey) (Q95LI5 22-117, stated change not applied, chain 1 of 2): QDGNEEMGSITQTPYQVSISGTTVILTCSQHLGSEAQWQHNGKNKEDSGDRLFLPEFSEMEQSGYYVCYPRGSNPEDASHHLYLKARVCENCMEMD
Sequence of Cynomolgus CD3ε/δ (soluble recombinant cynomolgus monkey CD3) (cynomolgus monkey) (Q95LI8 22-105, stated change not applied, chain 2 of 2, further chain): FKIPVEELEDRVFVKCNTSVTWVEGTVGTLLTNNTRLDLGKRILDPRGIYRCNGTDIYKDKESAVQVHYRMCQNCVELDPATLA
Sequence of Human CD3ε/δ (soluble recombinant human CD3) (human) (P07766 23-126, stated change not applied, chain 1 of 2): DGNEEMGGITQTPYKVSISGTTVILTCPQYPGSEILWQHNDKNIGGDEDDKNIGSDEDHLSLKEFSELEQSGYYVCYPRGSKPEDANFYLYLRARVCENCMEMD
Sequence of Human CD3ε/δ (soluble recombinant human CD3) (human) (P04234 22-105, stated change not applied, chain 2 of 2, further chain): as the sequence (Q95LI8 22-105, stated change not applied, chain 2 of 2, further chain) above, with V5I, K15N, V20I, T32S, N33D, N34I, A64T, N74S, L83V counted along it

B1: Sequence-Optimized CD123 × CD3 Bi-Specific Diabody (DART-A) (bispecific antibody)
chain 1: QAVVTQEPSLTVSPGGTVTLTCRSSTGAVTTSNYANWVQQKPGQAPRGLIGGTNKRAPWTPARFSGSLLGGKAALTITGAQAEDEADYYCALWYSNLWVFGGGTKLTVLGGGGSGGGGEVQLVQSGAELKKPGASVKVSCKASGYTFTDYYMKWVRQAPGQGLEWIGDIIPSNGATFYNQKFKGRVTITVDKSTSTAYMELSSLRSEDTAVYYCARSHLLRASWFAYWGQGTLVTVSSGGCGGGEVAALEKEVAALEKEVAALEKEVAALEK
chain 2: DFVMTQSPDSLAVSLGERVTMSCKSSQSLLNSGNQKNYLTWYQQKPGQPPKLLIYWASTRESGVPDRFSGSGSGTDFTLTISSLQAEDVAVYYCQNDYSYPYTFGQGTKLEIKGGGSGGGGEVQLVESGGGLVQPGGSLRLSCAASGFTFSTYAMNWVRQAPGKGLEWVGRIRSKYNNYATYYADSVKDRFTISRDDSKNSLYLQMNSLKTEDTAVYYCVRHGNFGNSYVSWFAYWGQGTLVTVSSGGCGGGKVAALKEKVAALKEKVAALKEKVAALKE
B1: the Kd in experiment [1] was 9.2 nM; in experiment [2], 9 nM; in experiment [3] it was 12.3 nM; in experiment [4] it was 9 nM. Besides, the koff in experiment [1] and in experiment [2] was 0.005 s⁻¹ each time. Further, the figures for the kon in experiment [1] and in experiment [2] were 550000 M⁻¹ s⁻¹ and 570000 M⁻¹ s⁻¹, respectively.

The Kd is the free concentration of one partner at which half of the binding sites on the other are occupied at equilibrium, for simple one-to-one binding. As a reminder, the koff is the rate constant with which the complex falls apart. The term kon denotes the second-order rate constant of association.
